Data: PMC9663308 (2022)
Ends that are not written are not given here.

T1: ClpA D1 pore-2 loop variant QTQ (AAS 295–297 to QTQ), hexamer (E. coli, UniProt P0ABH9 1-758, M169T | 295–297 AAS to QTQ)
T1 sequence: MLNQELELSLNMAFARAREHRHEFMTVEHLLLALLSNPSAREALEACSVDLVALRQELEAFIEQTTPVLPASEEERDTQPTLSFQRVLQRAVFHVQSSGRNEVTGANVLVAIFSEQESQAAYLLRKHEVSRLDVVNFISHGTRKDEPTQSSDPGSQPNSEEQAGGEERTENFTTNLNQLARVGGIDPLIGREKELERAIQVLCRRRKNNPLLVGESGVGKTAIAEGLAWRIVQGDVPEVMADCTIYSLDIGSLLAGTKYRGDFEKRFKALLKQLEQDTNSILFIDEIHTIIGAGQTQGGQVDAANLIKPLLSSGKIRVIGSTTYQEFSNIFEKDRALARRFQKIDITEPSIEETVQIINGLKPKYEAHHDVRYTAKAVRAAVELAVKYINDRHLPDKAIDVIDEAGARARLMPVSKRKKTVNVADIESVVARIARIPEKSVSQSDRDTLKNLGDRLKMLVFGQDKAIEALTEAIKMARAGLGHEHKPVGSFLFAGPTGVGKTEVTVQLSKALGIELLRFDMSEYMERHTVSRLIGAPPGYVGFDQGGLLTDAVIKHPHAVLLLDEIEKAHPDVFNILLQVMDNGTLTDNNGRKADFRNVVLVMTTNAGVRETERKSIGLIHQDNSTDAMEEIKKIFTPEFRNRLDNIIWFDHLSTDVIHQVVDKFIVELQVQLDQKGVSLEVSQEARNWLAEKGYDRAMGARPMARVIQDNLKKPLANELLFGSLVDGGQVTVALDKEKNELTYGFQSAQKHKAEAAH

T2: ClpA D1 pore-2 loop variant Δ295–297, hexamer (E. coli, UniProt P0ABH9 1-758, M169T | Δ295–297)
T2 sequence: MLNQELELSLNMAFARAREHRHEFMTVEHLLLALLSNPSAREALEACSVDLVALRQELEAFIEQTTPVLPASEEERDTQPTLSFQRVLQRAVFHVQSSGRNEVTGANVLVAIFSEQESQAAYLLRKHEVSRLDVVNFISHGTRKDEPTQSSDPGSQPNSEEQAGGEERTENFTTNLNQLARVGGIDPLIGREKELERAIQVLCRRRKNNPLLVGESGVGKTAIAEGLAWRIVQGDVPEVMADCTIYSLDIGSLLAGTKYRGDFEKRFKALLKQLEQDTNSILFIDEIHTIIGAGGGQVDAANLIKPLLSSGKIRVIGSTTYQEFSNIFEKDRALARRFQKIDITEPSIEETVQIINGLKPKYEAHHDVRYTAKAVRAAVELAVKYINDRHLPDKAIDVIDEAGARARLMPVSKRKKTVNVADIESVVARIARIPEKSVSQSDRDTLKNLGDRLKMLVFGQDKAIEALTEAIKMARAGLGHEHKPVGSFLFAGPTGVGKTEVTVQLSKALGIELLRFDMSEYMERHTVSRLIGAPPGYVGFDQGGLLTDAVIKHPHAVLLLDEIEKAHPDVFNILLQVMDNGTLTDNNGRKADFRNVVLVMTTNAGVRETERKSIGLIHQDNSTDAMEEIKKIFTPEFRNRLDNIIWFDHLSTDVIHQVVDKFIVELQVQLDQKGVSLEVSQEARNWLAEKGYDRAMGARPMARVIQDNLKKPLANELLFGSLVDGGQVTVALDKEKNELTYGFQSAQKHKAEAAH

T3: ClpA D1 pore-2 loop variant KYR (AAS 295–297 to KYR), hexamer (E. coli, UniProt P0ABH9 1-758, M169T | 295–297 AAS to KYR)
T3 sequence: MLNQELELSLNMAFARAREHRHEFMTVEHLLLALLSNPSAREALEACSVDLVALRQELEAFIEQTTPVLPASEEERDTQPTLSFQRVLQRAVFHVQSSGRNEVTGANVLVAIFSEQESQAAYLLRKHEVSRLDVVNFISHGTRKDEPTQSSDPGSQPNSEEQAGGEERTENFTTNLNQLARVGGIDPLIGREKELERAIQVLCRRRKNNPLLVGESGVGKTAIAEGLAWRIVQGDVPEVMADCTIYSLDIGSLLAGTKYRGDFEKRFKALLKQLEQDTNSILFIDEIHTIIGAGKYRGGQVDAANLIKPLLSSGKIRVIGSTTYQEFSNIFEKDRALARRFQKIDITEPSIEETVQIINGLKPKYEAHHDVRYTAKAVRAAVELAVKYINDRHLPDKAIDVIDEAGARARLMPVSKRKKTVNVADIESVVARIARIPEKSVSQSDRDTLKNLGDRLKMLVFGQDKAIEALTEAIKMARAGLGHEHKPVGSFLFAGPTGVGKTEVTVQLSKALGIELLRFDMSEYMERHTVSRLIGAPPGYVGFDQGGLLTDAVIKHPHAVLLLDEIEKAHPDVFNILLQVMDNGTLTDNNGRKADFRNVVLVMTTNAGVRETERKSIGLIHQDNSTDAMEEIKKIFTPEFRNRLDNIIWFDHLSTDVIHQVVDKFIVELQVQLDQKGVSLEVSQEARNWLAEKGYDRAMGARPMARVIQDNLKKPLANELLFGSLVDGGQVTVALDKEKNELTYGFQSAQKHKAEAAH

T4: ClpA D1 pore-2 loop variant GGG (AAS 295–297 to GGG), hexamer (E. coli, UniProt P0ABH9 1-758, M169T | 295–297 AAS to GGG)
T4 sequence: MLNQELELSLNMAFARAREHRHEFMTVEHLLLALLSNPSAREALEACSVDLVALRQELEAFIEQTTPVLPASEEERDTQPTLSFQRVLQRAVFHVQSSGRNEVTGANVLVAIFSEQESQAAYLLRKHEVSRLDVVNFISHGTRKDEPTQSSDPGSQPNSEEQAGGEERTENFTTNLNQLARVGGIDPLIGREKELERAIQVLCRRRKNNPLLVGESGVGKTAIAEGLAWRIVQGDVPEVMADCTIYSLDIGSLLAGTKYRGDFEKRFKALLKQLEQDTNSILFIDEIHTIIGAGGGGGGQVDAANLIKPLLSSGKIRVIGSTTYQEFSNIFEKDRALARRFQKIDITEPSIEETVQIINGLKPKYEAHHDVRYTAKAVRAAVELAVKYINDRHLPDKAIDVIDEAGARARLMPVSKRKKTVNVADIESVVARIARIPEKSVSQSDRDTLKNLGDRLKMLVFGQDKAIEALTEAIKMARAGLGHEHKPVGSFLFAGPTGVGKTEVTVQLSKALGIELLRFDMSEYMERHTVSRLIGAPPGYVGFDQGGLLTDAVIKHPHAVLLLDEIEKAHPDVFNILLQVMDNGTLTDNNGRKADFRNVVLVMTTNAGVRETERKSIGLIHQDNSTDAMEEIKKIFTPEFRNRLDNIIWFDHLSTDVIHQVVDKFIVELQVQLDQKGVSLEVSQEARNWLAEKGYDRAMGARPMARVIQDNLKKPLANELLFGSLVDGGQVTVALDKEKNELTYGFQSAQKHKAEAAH

T5: ClpS adaptor (E. coli, UniProt P0A8Q6 1-106)
T5 chain: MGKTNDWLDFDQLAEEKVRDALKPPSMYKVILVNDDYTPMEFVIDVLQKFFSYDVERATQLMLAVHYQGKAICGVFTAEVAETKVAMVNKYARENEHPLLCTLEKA

B1: ClpS•N-degron peptide complex (ClpS with LLYVQRDSKEC-fluorescein) (complex)
chain 1: MGKTNDWLDFDQLAEEKVRDALKPPSMYKVILVNDDYTPMEFVIDVLQKFFSYDVERATQLMLAVHYQGKAICGVFTAEVAETKVAMVNKYARENEHPLLCTLEKA
chain 2: LLYVQRDSKEC
modifications: fluorescein (printed as LLYVQRDSKEC-fluorescein)

Assays:
[1] = target: T6, ClpA (laboratory 'wild-type' ClpA carrying M169T), hexamer (E. coli, UniProt P0ABH9 1-758, M169T); experiment: FP; equimolar ClpA6 + ClpS titrated against N-degron peptide
[2] = target: T1, ClpA D1 pore-2 loop variant QTQ (AAS …); experiment: as above
[3] = target: T2, ClpA D1 pore-2 loop variant Δ295–297, …; experiment: as above
[4] = target: T3, ClpA D1 pore-2 loop variant KYR (AAS …); experiment: as above
[5] = target: T4, ClpA D1 pore-2 loop variant GGG (AAS …); experiment: as above
[6] = target: T6, ClpA (laboratory 'wild-type' ClpA …); experiment: FP
[7] = target: T1, ClpA D1 pore-2 loop variant QTQ (AAS …); experiment: FP
[8] = target: T5, ClpS adaptor; experiment: FP
[9] = target: T2, ClpA D1 pore-2 loop variant Δ295–297, …; experiment: FP
[10] = target: T3, ClpA D1 pore-2 loop variant KYR (AAS …); experiment: FP
[11] = target: T4, ClpA D1 pore-2 loop variant GGG (AAS …); experiment: FP

Binder	Kd [1] [nM]	Kd [2] [nM]	Kd [3] [nM]	Kd [4] [nM]	Kd [5] [nM]	Kd [6] [nM]	Kd [7] [nM]	Kd [8] [nM]	Kd [9] [nM]	Kd [10] [nM]	Kd [11] [nM]
B1	56	65	44	73	41						
LLYVQRDSKEC-fluorescein (not fully specified (residue 11); printed as LLYVQRDSKEC-fluorescein) [LLYVQRDSKEC-fluorescein N-degron synthetic peptide]						1200	900	2600	1200	550	670
